The target of test [1] is UNC-5/HA (C. elegans). Put plainly: LUMIER.
Test [2] concerns the target RCM-HA (in Cos-7 cells) ( (mammalian), UniProt O08747 41-931). The test can be described thus: radioligand binding.

RCM-HA (in Cos-7 cells), sequence (O08747 41-931): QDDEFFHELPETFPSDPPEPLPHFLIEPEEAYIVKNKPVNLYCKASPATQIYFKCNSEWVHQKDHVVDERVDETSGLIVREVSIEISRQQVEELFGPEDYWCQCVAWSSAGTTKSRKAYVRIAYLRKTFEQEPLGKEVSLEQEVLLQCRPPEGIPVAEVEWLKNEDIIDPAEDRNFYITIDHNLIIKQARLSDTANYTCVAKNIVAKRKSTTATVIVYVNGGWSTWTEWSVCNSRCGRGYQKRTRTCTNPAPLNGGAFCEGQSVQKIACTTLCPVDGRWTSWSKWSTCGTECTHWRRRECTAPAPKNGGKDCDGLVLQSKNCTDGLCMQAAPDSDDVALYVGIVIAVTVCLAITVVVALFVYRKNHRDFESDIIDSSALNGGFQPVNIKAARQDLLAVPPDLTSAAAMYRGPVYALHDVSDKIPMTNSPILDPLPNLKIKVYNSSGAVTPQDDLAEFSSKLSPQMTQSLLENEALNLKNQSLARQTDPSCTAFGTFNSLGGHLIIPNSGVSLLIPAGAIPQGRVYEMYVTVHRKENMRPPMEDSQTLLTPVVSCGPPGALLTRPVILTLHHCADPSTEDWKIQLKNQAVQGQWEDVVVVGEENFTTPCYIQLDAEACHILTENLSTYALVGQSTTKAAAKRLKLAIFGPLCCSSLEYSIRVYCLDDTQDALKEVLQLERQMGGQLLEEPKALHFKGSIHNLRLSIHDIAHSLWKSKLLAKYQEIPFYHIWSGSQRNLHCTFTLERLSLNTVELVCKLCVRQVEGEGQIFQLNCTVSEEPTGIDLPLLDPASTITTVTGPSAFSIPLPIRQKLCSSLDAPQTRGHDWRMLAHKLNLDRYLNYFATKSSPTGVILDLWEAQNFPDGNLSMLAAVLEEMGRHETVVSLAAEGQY
UNC-5/HA (C. elegans), sequence (Q26261 whole entry): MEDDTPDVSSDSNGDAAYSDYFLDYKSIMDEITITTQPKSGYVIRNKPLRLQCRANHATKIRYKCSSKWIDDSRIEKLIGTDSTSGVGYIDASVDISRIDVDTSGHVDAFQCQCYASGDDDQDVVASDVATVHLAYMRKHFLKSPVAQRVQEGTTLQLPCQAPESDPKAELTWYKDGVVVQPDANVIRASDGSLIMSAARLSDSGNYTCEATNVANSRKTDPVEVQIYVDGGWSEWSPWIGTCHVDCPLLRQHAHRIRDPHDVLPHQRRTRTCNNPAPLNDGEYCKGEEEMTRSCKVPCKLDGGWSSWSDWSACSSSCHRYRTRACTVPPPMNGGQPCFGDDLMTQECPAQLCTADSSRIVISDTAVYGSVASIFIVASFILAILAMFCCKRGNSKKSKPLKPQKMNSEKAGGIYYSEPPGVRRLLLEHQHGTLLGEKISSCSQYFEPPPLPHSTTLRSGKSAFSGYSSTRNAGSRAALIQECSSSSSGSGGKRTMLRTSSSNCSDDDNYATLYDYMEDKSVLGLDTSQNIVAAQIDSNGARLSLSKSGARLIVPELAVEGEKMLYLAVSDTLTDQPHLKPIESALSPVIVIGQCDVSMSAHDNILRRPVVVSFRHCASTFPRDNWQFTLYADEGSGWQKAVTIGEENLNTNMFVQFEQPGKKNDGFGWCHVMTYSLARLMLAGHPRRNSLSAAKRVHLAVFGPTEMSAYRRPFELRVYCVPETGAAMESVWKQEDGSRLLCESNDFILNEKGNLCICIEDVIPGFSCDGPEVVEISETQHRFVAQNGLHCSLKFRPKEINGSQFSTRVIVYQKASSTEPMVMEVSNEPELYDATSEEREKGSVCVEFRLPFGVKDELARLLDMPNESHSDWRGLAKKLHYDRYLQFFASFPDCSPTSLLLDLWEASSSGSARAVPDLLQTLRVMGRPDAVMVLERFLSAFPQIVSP

The molecule “Gluc-UNC-129 (from UniProt G5EBY8 19-407) (ligand)” showed a fold increase in luciferase activity over mock transfected cells in test [1] of 7 fold.

B1: 125I-BMP7 (ligand, UniProt P18075 293-431, looked up)
chain: STGSKQRSQNRSKTPKNQEALRMANVAENSSSDQRQACKKHELYVSFRDLGWQDWIIAPEGYAAYYCEGECAFPLNSYMNATNHAIVQTLVHFINPETVPKPCCAPTQLNAISVLYFDDSSNVILKKYRNMVVRACGCH
modifications: 125I label (iodinated)
Take B1: the affinity in test [2], expressed as Kd, was 4 nM.

The Kd is the equilibrium constant for the complex coming apart. Low readings indicate a tighter complex, high ones a looser complex.

For the origin of these results see PMC2745997 (Nature neuroscience, 2009).
